Results taken from patent publication US20240402190A1.

Target: SERCA1a, mouse (endogenous, mouse myotubes) (mouse) (UniProt Q8R429)
Assay: cell-based or functional assay

Sequence of UniProt Q8R429 (Q8R429 whole entry): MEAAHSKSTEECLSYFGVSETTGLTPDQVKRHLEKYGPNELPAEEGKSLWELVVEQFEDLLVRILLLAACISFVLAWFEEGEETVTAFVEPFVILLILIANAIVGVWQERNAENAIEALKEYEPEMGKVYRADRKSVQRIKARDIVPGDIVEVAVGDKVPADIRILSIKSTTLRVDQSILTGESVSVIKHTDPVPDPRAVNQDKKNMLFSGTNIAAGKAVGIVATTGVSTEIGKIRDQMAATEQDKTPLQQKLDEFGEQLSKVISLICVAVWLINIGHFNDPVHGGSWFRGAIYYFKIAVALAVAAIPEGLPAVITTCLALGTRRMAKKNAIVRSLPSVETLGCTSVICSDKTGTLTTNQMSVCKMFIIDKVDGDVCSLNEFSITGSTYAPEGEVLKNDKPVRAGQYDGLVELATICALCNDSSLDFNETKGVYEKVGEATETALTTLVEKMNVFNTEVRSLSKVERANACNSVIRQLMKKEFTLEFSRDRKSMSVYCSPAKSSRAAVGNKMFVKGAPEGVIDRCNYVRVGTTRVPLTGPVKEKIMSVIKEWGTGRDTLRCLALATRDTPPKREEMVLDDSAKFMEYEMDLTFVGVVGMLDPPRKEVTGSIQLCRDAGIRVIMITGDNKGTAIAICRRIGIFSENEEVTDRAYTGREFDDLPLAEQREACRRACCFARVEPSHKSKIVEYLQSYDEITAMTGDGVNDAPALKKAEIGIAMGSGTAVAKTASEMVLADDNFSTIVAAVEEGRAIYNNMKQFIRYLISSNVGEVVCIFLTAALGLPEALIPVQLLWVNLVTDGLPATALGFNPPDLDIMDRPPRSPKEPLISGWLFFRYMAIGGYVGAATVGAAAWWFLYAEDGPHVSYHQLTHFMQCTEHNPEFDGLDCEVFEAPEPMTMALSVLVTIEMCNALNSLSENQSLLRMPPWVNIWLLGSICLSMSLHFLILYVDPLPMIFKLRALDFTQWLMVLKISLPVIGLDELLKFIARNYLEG

| Substance | Caffeine response (normalized ratio to vector control) | KCl response (normalized ratio to vector control) | Releasable Ca^2+ level from SR (normalized ratio to vector control) |
| --- | --- | --- | --- |
| NHL-Del (TRIM32 lacking the NHL repeat) expressed in mouse myotubes (from UniProt Q13049 1-357) | 0.97 | 0.94 | 0.99 |
| wild-type TRIM32 expressed in mouse myotubes (from UniProt Q13049 1-653) | 1.22 | 1.27 | 1.48 |
